Assay results from the supplement of paper PMC11908140.

B1: library; numbered along this chain (parent)
chain: MRKPRAAVGSGHRKQAASQEGRQKHAKNNSQAKPSACDGLARQPEEVVLQASVSSYHLFRDVAEVTAFRGSLLSWYDQEKRDLPWRRRAEDEMDLDRRAYAVWVSEVMLQQTQVATVINYYTGWMQKWPTLQDLASASLEEVNQLWAGLGYYSRGRRLQEGARKVVEELGGHMPRTAETLQQLLPGVGRYTAGAIASIAFGQATGVVDGNVARVLCRVRAIGADPSSTLVSQQLWGLAQQLVDPARPGDFNQAAMELGATVCTPQRPLCSQCPVESLCRARQRVEQEQLLASGSLSGSPDVEECAPNTGQCHLCLPPSEPWDQTLGVVNFPRKASRKPPREESSATCVLEQPGALGAQILLVQRPNSGLLAGLWEFPSVTWEPSEQLQRKALLQELQRWAGPLPATHLRHLGEVVHTFSHIKLTYQVYGLALEGQTPVTTVPPGARWLTQEEFHTAAVSTAMKKVFRVYQGQQPGTCMGSKRSQVSSPCSRKKPRMGQQVLDNFFRSHISTDAHSLNSAAQ

Variants of: B1
Test: 8OG:A repair function score (normalized; synonymous = 0, nonsense = -1) (normalized log-likelihood score); higher = more repair activity (WT-like)
Settings: with 8OG:A DNA repair reporter (GFP) in HEK-293 MUTYH KO cells
Protocol: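 Saturation mutagenesis (NNN codon scan) of the MUTYH cDNA (521-aa nuclear isoform NM_001048174.1 / NP_001041639), stably expressed under doxycycline induction in HEK-293 MUTYH knockout cells. Cells were co-transfected with an 8OG:A-bearing GFP repair reporter plus mCherry and sorted 72 h later into GFP+ and GFP− bins, three replicates per tile. The Rosace log2 enrichment (GFP+ vs GFP−) was converted per tile to a normalized function score with synonymous variants centered at 0 and nonsense variants (codons 1-471) at -1; low-abundance variants were removed.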

8OG:A repair function score of substitutions, site by site:
E92: G -0.183, K -0.0744, Y -0.0538, V -0.0677, L -0.011, M -0.0276, S -0.0176, P -0.0511, Q -0.0495, D -0.0315, R -0.0994, C -0.0208, F -0.016, T -0.112, H -0.0814, W -0.152, N -0.0998, I -0.0645, A -0.0671
D96: F -0.446, K -0.758, E -0.143, I -0.341, H -0.132, C -0.291, A -0.536, G -0.0459
E90: M 0.0018, T -0.0178, K 0.00313, I -0.0086, C -0.00217, L 0.0056, A 0.00572, F -0.0713, V 0.0003, H -0.0294, D 0.000961, W -0.0857, R 0.0046, G 0.00689, P -0.164, Q -0.0474, Y -0.107, S -0.0214, N -0.0107
A89: D -0.0385, P -0.00485, V 0.00684, H 0.00693, F -0.0315, E -0.00662, C -0.0299, Y -0.00929, Q -0.0663, N -0.00625, M 0.00504, S 0.00694, I -0.0304, R -0.0424, L 0.00692, W -0.0308, T -0.00868, K -0.0427, G -0.0247
D91: I 0.00656, P -0.0949, C -0.0114, S -0.00182, N -0.0978, F 0.00319, H 0.0064, K 0.00215, Q -0.103, R 0.00216, A 0.0065, T -0.0112, M 0.00436, V 0.0064, L 0.00629, Y 0.00276, G -0.00708, E -0.0053, W -0.00643
D94: A -0.329, F -0.287, G -0.231, T -0.178, S -0.0913, C -0.112, P -0.157, L -0.105, M -0.104, W -1, E -0.625, R -0.182, Y -0.33, Q -0.215, I -0.0559, N -0.0146, K -0.193, V -0.128, H -0.136
R88: P -0.00404, N -0.0146, I 0.00568, C -0.0122, T 0.00666, D -0.0653, Q -0.0232, H 0.0048, Y -0.0224, L 0.00676, G -0.107, M -0.0202, W -0.0355, V -0.0028, E -0.00364, S -0.00167, K -0.364, F -0.00866, A 0.00657
R87: S 0.00689, T -0.0213, Y -0.052, V -0.0326, P -0.0432, W -0.0564, Q -0.219
L95: W -0.127, M 0.0014, I -0.0112, S -0.00398, F -0.0596, Q -0.0116, P -0.00578, A 0.00636, K -0.0064, D 0.00648, Y -0.0972, R -0.104, V -0.00351, G 0.00593, H -0.053, C -0.0111, N -8.88e-05, T -0.0603, E -0.00548
M93: L -0.0284, F 0.00598, N 0.00661, G -0.0185, P -0.0336, R 0.00556, I -0.0705, Q 0.00486, E 0.0066, C 0.00101, A 0.00637, H -0.01, K 0.00623, D 0.0046, S -0.0236, W -0.00669, T 0.00168, V 0.00114, Y -0.0084
